{"source": "paper doi:10.1101/2023.05.25.542057", "about": "(bioRxiv, 2023)", "target": "the molecule itself", "test": "SEC-SAXS", "data": [{"protein": "CDAN1-interacting nuclease 1 (CDIN1), full-length, recombinant from bacteria (natural protein) MILTKAQYDEIAQCLVSVPPTRQSLRKLKQRFPSQSQATLLSIFSQEYQKHIKRTHAKHHTSEAIESYYQRYLNGVVKNGAAPVLLDLANEVDYAPSLMARLILERFLQEHEETPPSKSIINSMLRDPSQIPDGVLANQVYQCIVNDCCYGPLVDCIKHAIGHEHEVLLRDLLLEKNLSFLDEDQLRAKGYDKTPDFILQVPVAVEGHIIHWIESKASFGDECSHHAYLHDQFWSYWNRFGPGLVIYWYGFIQELDCNRERGILLKACFPTNIVTLCHSIA", "values": [{"measurement": "stoichiometry N", "value": 2}]}]}
